From US20230192877A1 (NATIONAL INSTITUTES OF BIOMEDICAL INOVATION HEALTH AND …, published 2023) come the findings set out here.

Substitutions are numbered along the chain they refer to.

For test [1], the target named is T1, tumor necrosis factor receptor 2 (TNFR2) expressed on cells (human, UniProt P20333 23-461).
T1 construct: whole, on cells; also called human TNFR2; TNFRSF1B
T1 sequence (looked up): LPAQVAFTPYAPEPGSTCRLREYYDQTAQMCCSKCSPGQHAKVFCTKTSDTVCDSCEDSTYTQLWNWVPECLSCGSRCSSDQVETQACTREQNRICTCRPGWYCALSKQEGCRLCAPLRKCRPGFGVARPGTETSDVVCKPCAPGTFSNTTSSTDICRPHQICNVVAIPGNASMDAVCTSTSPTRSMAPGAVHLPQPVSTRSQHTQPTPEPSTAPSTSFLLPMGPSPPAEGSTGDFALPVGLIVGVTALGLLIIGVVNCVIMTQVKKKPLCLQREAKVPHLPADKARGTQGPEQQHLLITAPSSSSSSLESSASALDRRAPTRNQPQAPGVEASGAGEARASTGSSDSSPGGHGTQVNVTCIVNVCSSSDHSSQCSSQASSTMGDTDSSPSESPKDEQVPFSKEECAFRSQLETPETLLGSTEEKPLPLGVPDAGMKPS
As to the kind of experiment: flow cytometry on TNFR2-expressing Ramos-Blue cells, anti-human IgG-PE. How it is done:
Subsequently, binding affinity of each antibody was evaluated using Ramos-Blue reporter cells expressing TNFR2. Each antibody was added at concentrations of 0.01, 0.1, 1, 10, 100, 1000, 10000, and 100000 ng/mL to the TNFR2-Ramos-Blue cells used in a reporter assay, and the cells were incubated for 1 hour on ice. After centrifugation for 5 minutes at 1200 rpm, the supernatant was removed. After washing once with a FACS buffer, anti-human IgG-PE was added to each well. The samples were left standing for 30 minutes away from light on ice. After centrifugation for 5 minutes at 1200 rpm, the supernatant was removed. After washing once with a FACS buffer, fluorescence was analyzed with a flow cytometer (FCM). The mean value of fluorescence intensity was used as a value corresponding to the amount of binding. Experiments were independently conducted twice under the same condition.
On the technique in general: Flow cytometry measures light scatter and fluorescence of single cells or particles in a stream.

Another test addresses T2, TNFR2 monomeric antigen (UniProt P20333 23-257, limits assumed).
T2 construct: extracellular domain
T2 sequence (looked up): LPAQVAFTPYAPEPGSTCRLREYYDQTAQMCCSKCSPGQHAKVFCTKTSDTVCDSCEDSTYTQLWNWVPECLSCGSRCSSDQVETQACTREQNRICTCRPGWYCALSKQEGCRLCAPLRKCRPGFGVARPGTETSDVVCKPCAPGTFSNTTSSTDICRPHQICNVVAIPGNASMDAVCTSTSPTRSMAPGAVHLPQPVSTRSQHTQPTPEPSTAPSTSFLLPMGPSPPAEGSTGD
As to the kind of experiment: SPR (BIAcore T200), antibody captured with human antibody capture kit, monomeric antigen as analyte. How it is done: Binding kinetics analysis and evaluation of each antibody to a monomeric antigen and dimeric antigen were conducted through surface plasmon resonance (SPR) using BIAcore T200 system (GE Healthcare). Monomeric and dimeric antigens were prepared. The affinity of each antibody to the monomeric and dimeric antigens was evaluated to study the presence/absence of intramolecular bridging activity. The SPR technology is based on measuring the index of refraction near the surface of a gold coated biosensor chip. A change in the index of refraction indicates a change in mass on the surface due to an interaction between an immobilized antibody and a monomeric or dimeric antigen infused into the solution. The mass increases when a molecule binds to an antibody immobilized on the surface, whereas the mass decreases when an analyte dissociates from an immobilized antibody. Analysis of a biparatopic antibody and the original monoclonal antibody by SPR can not only evaluate the performance of each antibody, but also see the effect of multivalent bond.
The monomeric and dimeric antigens were prepared as shown in the schematic diagram of FIG. 8. First, an etanercept (Pfizer), which is an Fc fusion protein of a TNFR2 extracellular region, was prepared, and a TNFR2 antigen molecule was obtained by enzymatic degradation and reductive re-oxidation reaction. An antibody was immobilized on a sensor chip using a human antibody capture kit according to the protocol by using a BIAcore T200 system (GE Healthcare). The interaction was analyzed by using the two types of antigens described above as analytes.

B1: Bp96-92 epitope region-bridging biparatopic antibody (bispecific antibody, V domains shown)
VH 1: EVQLQQSGAELVKPGASVKLSCTPSGFNIKDTYMHWVKQRPEQGLEWIGRIDPANGYTEYDPKFQDKATITADTSSNTAYLQLSSLTSEDTAVYYCADTQLYYWGQGTTLTVSS
VL 1: QIVLTQSPAIMSASLGERVTMTCTASSSVSSTYLHWYQQKPGSSPKLWIYSTSNLASGVPARFSGSGSGTSYSLTISNMEAEDAATYYCHQYHRSPLTFGAGTKLELKR
VH 2: KVQLQQSGAELVKPGASVKLSCKASGYTFTESIIHWVKQRSGQGLEWIGWFYPGSDNINYNEKFKDKATLTADKSSSTVYMELTRLTSEDSAVYFCASHEGPYVYFDYWGQGTTLTVSS
VL 2: DIVMTQSHKFMSTSVGDRVSITCKASQDVSTAVAWYQQKPGQSPKLLIYWTSTRHTGVPDRFTGSGSGTDYTLTISSVQAEDLALYYCQHHYSTPYTFGGGTKLEIQR
notes: N side Fab joined by split-intein trans-splicing to hinge and hole Fc; C side VH-CH1-hinge-knob Fc plus light chain; Human IgG1 constant regions
For B1, the binding result (in test [1]; in the test with TNFR2 monomeric antigen) was “binds” each time.

B2: Bp45-92 epitope region-bridging biparatopic antibody (bispecific antibody, V domains shown)
VH 1: EVQLQQSGPEMEKPGASVKISCKASGYSFTGYNMNWVKQSIGKSLEWIGKIDPYYGGTDYNLRFKDKATLTVDKSSSTAYMHLSRLTSEDSAVYYCAREPNYGSNDWYFDVWGAGTTVTVSS
VL 1: DIQVTQTTSSLSASLGDRVTISCRASQDIDNYLNWYQQRPDGTVKLLIYYTSILHSGVPSRFSGSGSRTDFSLTISSLEEEDFATYFCQQGNTLPWTFGGGTKLEFKR
VH 2: B1 VH 2
VL 2: B1 VL 2
notes: The N side Fab (VH-CH1 plus light chain) is joined by Cfa DnaE split-intein trans-splicing to the hinge and hole Fc; The C side is VH-CH1-hinge-knob Fc plus light chain; Human IgG1 constant regions
Take B2: the binding result in test [1] is given as “binds”.

B3: Bp109-94 epitope region-bridging biparatopic antibody (bispecific antibody, V domains shown)
VH 1: QVQLKESGPGLVAPSQSLSITCTVSGFSLTVYGVNWVRQPPGKGLEWLGMIWGDGSTAYNSALKSRLTITKDNSKTQVFLKMNSLQTDDTARYYCARDGRRYALDYWGQGTSVTVSS
VL 1: DIVLTQSPTSLAVSLGQRATISCRASESVDSYGDSFLHWYQQKPGQPPILLIYRASNLDSGIPARFSGSGSRTDFTLTINPVEADDVATYYCQQSNEDPYTFGGGTKLEINR
VH 2: QVQLQQSGAELARPGTSVKLSCKASGYTFTSYWMQWVKQTPGQGLEWIGAIYPGDGDSRYIQKFKGKATLTADKSSSTAYMQLSSLASEDSAVYYCARDGNYYAMDYWGQGTSVTVSS
VL 2: B1 VL 1 with M21I, N78S, L97P
notes: as for B1
Regarding B3, the binding result (in test [1]; with TNFR2 monomeric antigen) was “binds” each time.

B4: Bp45-94 epitope region-bridging biparatopic antibody (bispecific antibody, V domains shown)
VH 1: B2 VH 1
VL 1: B2 VL 1
VH 2: B3 VH 2
VL 2: B1 VL 1 with M21I, N78S, L97P
notes: as for B1
Consider B4, for which the binding result (in test [1]; with TNFR2 monomeric antigen) was “binds” in each case.

B5: Bp109-96 epitope region-bridging biparatopic antibody (bispecific antibody, V domains shown)
VH 1: B3 VH 1
VL 1: B3 VL 1
VH 2: B1 VH 1
VL 2: B1 VL 1
notes: as for B1
Turning to B5, the binding result (in test [1]; with TNFR2 monomeric antigen) was “binds” in each case.

B6: Bp109-45 epitope region-bridging biparatopic antibody (bispecific antibody, V domains shown)
VH 1: B3 VH 1
VL 1: B3 VL 1
VH 2: B2 VH 1
VL 2: B2 VL 1
notes: as for B1
Turning to B6, the binding result (in test [1]; with TNFR2 monomeric antigen) was “binds” throughout.
